Assay results from PMC10716038, “Talin and kindlin use integrin tail allostery and direct binding to activate integrins” (Nature Structural & Molecular Biology, 2023).
Several values for one entry are separate records, joined by “and”; a condition that tells them apart may be missing. Equal values may be shown once. No end group written: not given here.

Legend:
Settings in all cases: both partners purified
[1] = target: T1, kindlin-2 (KIND2) (UniProt Q8CIB5 1-680); assay: MST; apparent; KIND2 titrated to 488–β3-CT in the presence of 250–450 µM THD1; MST buffer
T1 construct: kindlin-2 (KIND2), recombinant; with the F1 loop and the PH domain (unlike ΔKIND2); source: E. coli Rosetta, purified (IMAC, SEC); not shown: His10-SUMO, N-terminal, cleaved
T1 sequence (looked up): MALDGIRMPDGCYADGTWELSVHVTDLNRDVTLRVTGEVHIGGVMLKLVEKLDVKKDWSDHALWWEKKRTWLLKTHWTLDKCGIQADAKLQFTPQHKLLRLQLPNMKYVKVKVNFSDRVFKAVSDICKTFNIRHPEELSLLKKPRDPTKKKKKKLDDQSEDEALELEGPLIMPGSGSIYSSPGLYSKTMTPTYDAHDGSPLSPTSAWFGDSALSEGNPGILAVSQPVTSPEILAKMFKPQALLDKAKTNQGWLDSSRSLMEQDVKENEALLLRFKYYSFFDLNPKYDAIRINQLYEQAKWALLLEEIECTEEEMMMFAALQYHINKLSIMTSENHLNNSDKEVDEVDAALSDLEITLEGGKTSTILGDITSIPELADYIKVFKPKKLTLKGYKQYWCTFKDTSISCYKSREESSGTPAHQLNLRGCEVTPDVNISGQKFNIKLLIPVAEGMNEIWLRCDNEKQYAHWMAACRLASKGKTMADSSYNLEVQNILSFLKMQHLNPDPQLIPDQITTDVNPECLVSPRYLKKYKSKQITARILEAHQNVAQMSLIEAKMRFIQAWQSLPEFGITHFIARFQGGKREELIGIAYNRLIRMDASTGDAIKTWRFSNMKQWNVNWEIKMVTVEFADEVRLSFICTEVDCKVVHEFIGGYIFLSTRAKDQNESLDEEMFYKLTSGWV

[2] = target: T2, talin-1 head domain (THD1) (UniProt P26039 1-405); assay: MST; apparent; THD1 titrated to 488–β1-CT or 488–β3-CT in the presence of 500–1,100 µM KIND2-F0; MST buffer
T2 construct: talin-1 (TLN1) head domain (THD), residues 1-405; murine TLN1 cDNA is named only for the cell lines; also called WT; source: E. coli (DE3) Rosetta 2, purified (IMAC, SEC); not shown: His10-SUMO, N-terminal, cleaved
T2 sequence (P26039 1-405): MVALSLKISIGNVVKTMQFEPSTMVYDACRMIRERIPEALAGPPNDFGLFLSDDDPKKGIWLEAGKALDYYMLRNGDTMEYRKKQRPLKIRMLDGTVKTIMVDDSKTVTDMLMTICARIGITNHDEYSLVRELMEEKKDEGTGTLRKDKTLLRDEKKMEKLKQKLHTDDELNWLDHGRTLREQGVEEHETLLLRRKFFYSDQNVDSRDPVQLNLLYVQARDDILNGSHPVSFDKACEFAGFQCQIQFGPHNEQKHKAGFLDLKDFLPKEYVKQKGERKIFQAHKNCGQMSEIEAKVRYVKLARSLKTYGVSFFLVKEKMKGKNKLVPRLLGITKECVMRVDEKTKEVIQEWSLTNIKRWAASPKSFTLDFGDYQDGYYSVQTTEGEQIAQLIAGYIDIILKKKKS

[3] = target: T2, talin-1 head domain (THD1); assay: MST; unlabelled protein titrated to 50-200 nM ATTO 488-labelled β-CT peptide, no third protein; 20 mM Tris pH 7.5, 200 mM NaCl, 1 mM TCEP, 0.05% Tween-20; Kd of individual titrations (in S0002 mean and sd, n = 2)
[4] = target: T3, THD1 K401A (UniProt P26039 1-405, K401A); assay: MST; apparent; THD1 or THD1 mutants titrated to 488–β3-CT in the presence of 30-40 µM KIND2; MST buffer
T3 construct: talin-1 (TLN1) head domain, residues 1-405, K401A; source: E. coli (DE3) Rosetta 2, purified (IMAC, SEC); not shown: His10-SUMO, N-terminal, cleaved
T3 sequence (P26039 1-405 K401A): as the sequence (P26039 1-405) above, with K401A counted along it

[5] = target: T4, THD1 K403A (UniProt P26039 1-405, K403A); assay: as above
T4 construct: talin-1 (TLN1) head domain, residues 1-405, K403A; source: E. coli (DE3) Rosetta 2, purified (IMAC, SEC); not shown: His10-SUMO, N-terminal, cleaved
T4 sequence (P26039 1-405 K403A): as the sequence (P26039 1-405) above, with K403A counted along it

[6] = target: T5, THD1 I398A (UniProt P26039 1-405, I398A); assay: as above
T5 construct: talin-1 (TLN1) head domain, residues 1-405, I398A; source: E. coli (DE3) Rosetta 2, purified (IMAC, SEC); not shown: His10-SUMO, N-terminal, cleaved
T5 sequence (P26039 1-405 I398A): as the sequence (P26039 1-405) above, with I398A counted along it

[7] = target: T2, talin-1 head domain (THD1); assay: as above
[8] = target: T6, THD1 Δ401-405 (UniProt P26039 1-405, Δ401-405); assay: as above
T6 construct: source: E. coli (DE3) Rosetta 2, purified (IMAC, SEC); not shown: His10-SUMO, N-terminal, cleaved
T6 sequence (P26039 1-400, stated change not applied): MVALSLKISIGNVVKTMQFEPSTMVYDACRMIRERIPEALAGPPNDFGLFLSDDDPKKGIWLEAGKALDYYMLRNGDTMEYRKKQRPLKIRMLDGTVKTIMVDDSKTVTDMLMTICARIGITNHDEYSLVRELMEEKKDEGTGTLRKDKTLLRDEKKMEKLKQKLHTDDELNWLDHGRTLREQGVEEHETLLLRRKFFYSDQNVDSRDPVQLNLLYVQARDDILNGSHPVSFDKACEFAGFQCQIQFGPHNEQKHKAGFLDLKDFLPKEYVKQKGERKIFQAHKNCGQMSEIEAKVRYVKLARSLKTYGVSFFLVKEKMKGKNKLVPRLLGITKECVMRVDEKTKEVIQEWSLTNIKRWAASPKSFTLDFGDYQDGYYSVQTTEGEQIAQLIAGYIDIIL

[9] = target: T7, THD1 K404A (UniProt P26039 1-405, K404A); assay: as above
T7 construct: talin-1 (TLN1) head domain, residues 1-405, K404A; source: E. coli (DE3) Rosetta 2, purified (IMAC, SEC); not shown: His10-SUMO, N-terminal, cleaved
T7 sequence (P26039 1-405 K404A): as the sequence (P26039 1-405) above, with K404A counted along it

[10] = target: T8, THD1 L400A (UniProt P26039 1-405, L400A); assay: as above
T8 construct: talin-1 (TLN1) head domain, residues 1-405, L400A; source: E. coli (DE3) Rosetta 2, purified (IMAC, SEC); not shown: His10-SUMO, N-terminal, cleaved
T8 sequence (P26039 1-405 L400A): as the sequence (P26039 1-405) above, with L400A counted along it

[11] = target: T9, talin-2 head domain (THD2) (UniProt Q71LX4 1-408); assay: MST; unlabelled protein titrated to 50-200 nM ATTO 488-labelled β-CT peptide, no third protein; 20 mM Tris pH 7.5, 200 mM NaCl, 1 mM TCEP, 0.05% Tween-20; Kd of individual titrations (in S0002 mean and sd, n = 2)
T9 construct: talin-2 (TLN2) head domain (THD), residues 1-408; source: E. coli (DE3) Rosetta 2, purified (IMAC, SEC); not shown: His10-SUMO, N-terminal, cleaved
T9 sequence (Q71LX4 1-408): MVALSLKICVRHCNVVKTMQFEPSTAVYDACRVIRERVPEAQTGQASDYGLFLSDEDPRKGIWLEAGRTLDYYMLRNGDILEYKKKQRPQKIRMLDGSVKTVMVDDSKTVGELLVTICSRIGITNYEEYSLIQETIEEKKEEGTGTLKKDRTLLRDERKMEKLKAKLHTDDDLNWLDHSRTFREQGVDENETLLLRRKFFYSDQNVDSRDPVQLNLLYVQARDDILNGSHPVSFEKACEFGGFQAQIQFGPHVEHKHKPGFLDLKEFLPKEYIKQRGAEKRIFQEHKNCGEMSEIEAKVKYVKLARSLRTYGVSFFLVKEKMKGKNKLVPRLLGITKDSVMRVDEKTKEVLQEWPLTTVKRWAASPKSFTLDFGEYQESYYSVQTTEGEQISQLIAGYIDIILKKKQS

B1: ATTO 488-labeled integrin β3 cytoplasmic tail (488–β3-CT) (peptide, UniProt O54890 741-787, looked up)
peptide: {ATTO 488}-KLLITIHDRKEFAKFEEERARAKWDTANNPLYKEATSTFTNITYRGT
notes: integrin β3 cytoplasmic tail (β3-CT); source: synthetic peptide (MPIB Core Facility)
In the case of B1, the Kd [1] is reported as 30.7 µM and 85.6 µM and 31.9 µM and 66 µM, the Kd [2] is reported as 105 µM and 87.6 µM and the Kd [3] is reported as 81.6 µM. It also gave a Kd [4] of 148 µM, a Kd [5] of 114 µM and a Kd [6] of 155 µM. The Kd [7] was 95 µM, the Kd [8] was 560 µM and the Kd [9] was 116 µM. The Kd [10] was 180 µM and the Kd [11] was 31.7 µM and 32.1 µM and 49.1 µM.
